No end group written: not given here.
Legend:
Assay in all cases: FP
[1] = biological target: T1, talin-1 R7–R8 fragment, wildtype (residues 1355–1652) (mouse, UniProt P26039 1355-1652)
T1 chain: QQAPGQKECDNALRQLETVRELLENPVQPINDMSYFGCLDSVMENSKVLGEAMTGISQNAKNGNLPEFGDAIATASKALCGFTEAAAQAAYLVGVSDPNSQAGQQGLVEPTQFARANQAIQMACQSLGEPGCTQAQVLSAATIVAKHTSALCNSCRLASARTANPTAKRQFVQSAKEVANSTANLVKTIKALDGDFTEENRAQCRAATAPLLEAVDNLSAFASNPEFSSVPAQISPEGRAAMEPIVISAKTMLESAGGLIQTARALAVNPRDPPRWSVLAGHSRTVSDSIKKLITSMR

[2] = biological target: talin-1 R7–R8 fragment (residues 1355–1652) with mutation Y1389C (mouse, UniProt P26039 1355-1652, Y1389C)
[3] = biological target: talin-1 R7–R8 fragment (residues 1355–1652) with mutation R1368W (mouse, UniProt P26039 1355-1652, R1368W)
Chain of talin-1 R7–R8 fragment (residues 1355–1652) with mutation R1368W (P26039 1355-1652 R1368W): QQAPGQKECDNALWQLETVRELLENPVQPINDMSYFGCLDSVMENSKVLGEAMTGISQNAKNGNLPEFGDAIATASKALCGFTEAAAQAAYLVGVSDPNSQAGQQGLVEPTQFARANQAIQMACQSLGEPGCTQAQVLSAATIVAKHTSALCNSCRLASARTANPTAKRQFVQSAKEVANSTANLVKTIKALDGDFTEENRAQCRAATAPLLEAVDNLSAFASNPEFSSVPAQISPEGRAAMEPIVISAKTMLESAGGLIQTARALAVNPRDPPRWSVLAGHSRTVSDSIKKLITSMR

Chain of talin-1 R7–R8 fragment (residues 1355–1652) with mutation Y1389C (P26039 1355-1652 Y1389C): as the sequence (P26039 1355-1652 R1368W) above, with W14R, Y35C counted along it

Row | Binder | Kd [1] | Kd [2] | Kd [3]
1 | SEDIDQMFSTLLGEMDLLTQSLGVDTC (also: BODIPY or Fluorescein dye coupled via C-terminal Cys) [RIAM (4–30) peptide] | 3600 nM | 3600 nM | 3300 nM
2 | PYFVETPYGFQLDLDFVKYVDDIQKGNTIKKLNIQKRRKC (BODIPY or Fluorescein dye coupled via the C-terminal cysteine residue) [KANK1 (30–68) peptide] | 350 nM | 350 nM | 390 nM

— paper PMC7801617 (2021)
